system: XylR (ROK family transcriptional regulator) (Paenibacillus polymyxa ATCC842); test: EMSA; settings: Chemiluminescent EMSA Kit (Beyotime), biotinylated PCR probes; XylR 0.02-0.1 g/L (protein:probe 20.9-104.4) for BST/DTE; buffer, pH, temperature not stated

| Substance | binding signal [% bound] |
| --- | --- |
| -1C (A/T to C/G outside site) | 50.8 |
| -1G (A/T to G/C outside site) | 64.5 |
| -1T (A/T to T/A outside site) | 61.3 |
| -2C (A/T to C/G outside site) | 57.6 |
| -2G (A/T to G/C outside site) | 60.8 |
| -2T (A/T to T/A outside site) | 65.4 |
| BST 1C (A/T to C/G) | 19.8 |
| BST 1G (A/T to G/C) | 18.8 |
| BST 1T (A/T to T/A) | 30 |
| BST 17A (G71A) | 1.9 |
| BST 17C (G71C) | 63.5 |
| BST 17T (G71T) | 52.1 |
| BST (full predicted site) | 70 |

— PMC9104551
